We go through two molecules from patent publication US20210107983A1 (Boehringer Ingelheim, published 2021).

Assay [1] concerns the target T1, Cyno B7H6-His (cynomolgus monkey).
T1 construct: also called CyB7H6; cyB7-H6
T1 chain: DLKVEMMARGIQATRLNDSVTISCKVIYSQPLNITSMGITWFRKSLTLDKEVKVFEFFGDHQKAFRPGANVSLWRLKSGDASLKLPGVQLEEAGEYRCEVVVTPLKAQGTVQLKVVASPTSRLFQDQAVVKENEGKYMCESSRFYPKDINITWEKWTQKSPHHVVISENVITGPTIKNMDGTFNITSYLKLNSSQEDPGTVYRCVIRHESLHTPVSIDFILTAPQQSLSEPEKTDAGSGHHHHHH
The experiment in a line: ratio of SPR KDs cyno/human. The procedure: (§1) About 700 RU of the B7H6/CD3 binding protein was captured on flow cell 2 of the Protein A/G surface for 60 s at a flow rate of 10 μL/min. The analytes HuB7H6, CyB7H6 and HuB7H1 were injected across both flow cells over captured B7H6/CD3 binding protein for 300 s at a flow rate of 30 μL/min with a dissociation of 1200 s. The concentrations of HuB7H6 and CyB7H6 were 0 nM, 6.25 nM, 12.5 nM, 25 nM, 50 nM and 100 nM. The concentrations of HuB7H1 were 0 nM and 1 μM. The surface was regenerated by injecting 10 mM glycine-HCl, pH 1.5 for 20 s at a flow rate of 30 μL/min across both flow cells.
(§2) The reference flow cell 1 (interactions with sensor surface) and blank (HBS-EP+ or 0 nM analyte) were subtracted from the raw data.
(§3) The B7H6/CD3 binding protein analyte was injected horizontally over the immobilized surface for 300 s at a flow rate of 30 μL/min with a dissociation of 600 s. The concentrations of the B7H6/CD3 binding protein used were 0 nM, 1.2 nM, 3.7 nM, 11.1 nM, 33.3 nM and 100 nM.

A further assay addresses T2, Human B7H1 (human, UniProt Q9NZQ7 20-239).
T2 construct: also called HuB7H1; huB7-H1
The experiment in a line: SPR, binder captured on Protein A/G, HuB7H1 analyte. How it is done:
(§4) To determine the affinity of human and cyno B7H6 and human B7H1 to B7H6/CD3 binding proteins, the experiment was performed on a Biacore™ 8K instrument (GE Healthcare Life Sciences). Briefly, the B7H6/CD3 binding protein was captured via Protein A/G. The running buffer for this experiment and all serial dilutions were prepared in HBS-EP+. The CM5 sensor chip was activated with an equal mixture of EDC/NHS across both flow cells for 420 s at a flow rate of 10 μL/min and immobilized with recombinant Protein A/G (50 μg/ml in 10 mM NaOAc, pH 4.5) across all flow cells for 420 s at a flow rate of 10 μL/min resulting in about 2500 RU of Protein A/G on the surface. The sensor chip was deactivated with 1M ethanolamine-HCl across all flow cells for 420 s at a flow rate of 10 μL/min.
as §1, §2
(In general: SPR reads the build-up and loss of mass on a sensor chip optically.)

The target of assay [2] is T1, Cyno B7H6-His. The experiment in a line: SPR, binder captured on Protein A/G, B7H6 analyte. How it is done: as §4, §1, §2
Assay [3] deals with T3, trypsin inhibitor from Glycine max soybean (Glycine max (soybean)).
T3 construct: unrelated negatively charged protein, amine-coupled to the chip
T3 sequence (P01070 25-205): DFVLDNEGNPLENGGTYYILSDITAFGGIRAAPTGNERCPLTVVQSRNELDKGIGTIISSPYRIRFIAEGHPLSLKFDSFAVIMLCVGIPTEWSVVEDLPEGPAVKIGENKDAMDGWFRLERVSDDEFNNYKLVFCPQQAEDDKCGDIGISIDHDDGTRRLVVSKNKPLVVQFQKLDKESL
The experiment in a line: SPR, 1 µM binder over immobilized trypsin inhibitor. The procedure: (§5) The experiment was performed on a Biacore® T200 SPR system (GE Healthcare Life Sciences). The dilution, surface preparation, and binding experiments were performed at 25° C. in 1×HBS-EP buffer prepared from 10×HBS-EP. The flow rate for both the immobilization protocol and binding experiment was at 5 μL/min.
(§6) To prepare the surface for the non-specific binding experiment, chicken egg white lysozyme and trypsin inhibitor from Glycine max soybean were coupled manually to a Biacore® series S CM5 sensor chip (GE Healthcare sciences) with the surface density of 3000-5000 RU using the amine coupling kit according to the manufacture instructions. Samples were prepared at 1 μM in 1×HBS-EP buffer. The samples were injected over activated surfaces with a 10 min association and 15 min dissociation. The data was collected using Biacore® T200 Control Software version 2.0.1 and analyzed using Biacore® T200 Evaluation Software version 3.0 (GE Healthcare Life Sciences).

The target of the next assay is T4, Human CD3 E+G HuFc-6xHis (human).
T4 construct: also called HuCD3E+G-hFc; huCD3
T4 sequence (chain, as listed by the source limits assumed): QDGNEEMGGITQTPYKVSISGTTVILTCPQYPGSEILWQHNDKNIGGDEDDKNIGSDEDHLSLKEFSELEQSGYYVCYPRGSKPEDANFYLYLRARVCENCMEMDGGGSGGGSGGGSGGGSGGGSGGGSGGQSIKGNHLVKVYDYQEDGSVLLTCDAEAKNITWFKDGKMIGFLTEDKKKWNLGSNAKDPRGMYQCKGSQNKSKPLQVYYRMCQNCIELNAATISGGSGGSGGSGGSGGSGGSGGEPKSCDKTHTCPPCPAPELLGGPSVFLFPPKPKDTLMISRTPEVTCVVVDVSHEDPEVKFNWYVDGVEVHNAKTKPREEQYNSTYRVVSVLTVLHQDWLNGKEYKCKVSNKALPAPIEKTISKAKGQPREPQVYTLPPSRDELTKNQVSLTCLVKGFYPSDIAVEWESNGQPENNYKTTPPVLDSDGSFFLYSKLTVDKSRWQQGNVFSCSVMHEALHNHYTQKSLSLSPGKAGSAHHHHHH
The experiment in a line: SPR, CD3E+G-hFc immobilized, binder analyte. How it is done:
To determine the affinity of the B7H6/CD3 binding protein to human and cyno CD3E+G-hFc, the experiment was performed on a Bio-Rad ProteOn™ XPR36 instrument. Briefly, HuCD3E+G-hFc and CyCD3E+G were amine-coupled on a ProteOn™ GLM sensor chip (Bio-Rad) and the B7H6/CD3 binding protein was flowed over the immobilized surface. The running buffer for this experiment and all serial dilutions were prepared in HBS-EP+. The GLM sensor chip was normalized according to Bio-Rad's recommendations. The sensor chip was activated with an equal mixture of EDC/s-NHS in the horizontal direction for 300 s at a flow rate of 30 μL/min HuCD3E+G-hFc was immobilized in the vertical direction at 0.4 μg/mL, 0.2 μg/mL and 0.1 μg/mL in 10 mM acetate pH 4.5 to L1, L2 and L3, respectively, for 300 s at a flow rate of 30 μL/min resulting in about 100 RU of HuCD3E+G-hFc on L1, 40 RU of HuCD3E+G-hFc on L2 and 0 RU of HuCD3E+G-hFc on L3. CyCD3E+G-hFc was immobilized in the vertical direction at 0.4 μg/mL, 0.2 μg/mL and 0.1 μg/mL in 10 mM acetate pH 4.5 to L4, L5 and L6, respectively, for 300 s at a flow rate of 30 μL/min resulting in about 385 RU of […], 170 RU of CyCD3E+G-hFc on L5 and 50 RU of CyCD3E+G-hFc on L6. The sensor chip was deactivated with 1M ethanolamine-HCl in the horizontal direction for 300 s at a flow rate of 30 μL/min.
as §3
The interspot (interactions with sensor surface) and blank (HBS-EP+ or 0 nM analyte) were subtracted from the raw data.

The target of assay [4] is T5, chicken egg white lysozyme (chicken, UniProt P00698 19-147).
T5 construct: unrelated positively charged protein, amine-coupled to the chip; also called Lysozyme (positive)
T5 sequence (P00698 19-147): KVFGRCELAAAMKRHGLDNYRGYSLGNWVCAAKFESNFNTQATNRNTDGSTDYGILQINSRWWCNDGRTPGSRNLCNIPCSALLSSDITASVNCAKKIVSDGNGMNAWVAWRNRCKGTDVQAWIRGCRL
In words: SPR, 1 µM binder over immobilized lysozyme. The procedure: as §5, §6

T2 sequence (Q9NZQ7 other isoform, or with tags, fused parts or gaps limits assumed): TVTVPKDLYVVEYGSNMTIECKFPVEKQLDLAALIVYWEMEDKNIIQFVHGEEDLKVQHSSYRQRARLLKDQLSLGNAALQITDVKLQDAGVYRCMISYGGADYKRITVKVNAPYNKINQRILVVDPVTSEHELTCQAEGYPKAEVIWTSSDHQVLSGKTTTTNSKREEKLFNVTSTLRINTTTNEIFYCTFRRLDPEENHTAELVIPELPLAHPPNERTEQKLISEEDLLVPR

B1: B7H6#13/CD3#1 (bispecific antibody, human IgG1, kappa, lambda, L234A L235A)
chain 1: DIQMTQSPSSLSASVGDRVTITCKASQNVGKYVAWYQQKPGKAPKSLIYSASNRYDGVPSRFSGSGSGTDFTLTISSLQPEDFTTYYCQQYISYPLTFGAGTKLEIKRTVAAPSVFIFPPSDEQLKSGTASVVCLLNNFYPREAKVQWKVDNALQSGNSQESVTEQDSKDSTYSLSSTLTLSKADYEKHKVYACEVTHQGLSSPVTKSFNRGECGGGGSEGKSSGSGSESKSTEGKSSGSGSESKSTGGGGSQVQLVQSGAEVKKPGASVKVSCKASGYTFTSYWMNWMKQAPGQGLEWMGGIYLNGDSTDYNEKFKGRVTMTVDTSTSTVYMELSSLRSEDTAVYYCTRRGDYFGDFWGQGTLVTVSSASTKGPSVFPLAPSSKSTSGGTAALGCLVKDYFPEPVTVSWNSGALTSGVHTFPAVLQSSGLYSLSSVVTVPSSSLGTQTYICNVNHKPSNTKVDKRVEPKSCDKTHTCPPCPAPEAAGGPSVFLFPPKPKDTLMISRTPEVTCVVVDVSHEDPEVKFNWYVDGVEVHNAKTKPREEQYNSTYRVVSVLTVLHQDWLNGKEYKCKVSNKALPAPIEKTISKAKGQPREPQVYTLPPSREEMTKNQVSLWCLVKGFYPSDIAVEWESNGQPENNYKTTPPVLDSDGSFFLYSKLTVDKSRWQQGNVFSCSVMHEALHNHYTQKSLSLSPG
chain 2: EAVVTQEPSLTVSPGGTVTLTCRSSTGAVTTSNYANWVQEKPGQLPRGLIGGTNKRAPWVPARFSGSLLGGKAALTLSGAQPEDEAEYFCALWYSNLWVFGGGTKLTVLGQPKAAPSVTLFPPSSEELQANKATLVCLISDFYPGAVKVAWKADGSPVNTGVETTTPSKQSNNKYAASSYLSLTPEQWKSHRSYSCQVTHEGSTVEKTVAPAECSGGGGSEGKSSGSGSESKSTEGKSSGSGSESKSTGGGGSEVQLVESGGGLVQPGGSLKLSCAASGFTFNTYAMNWVRQAPGKGLEWVARIRSKYNNYATYYADSVKDRFTISRDDSKNTAYLQMNNLKTEDTAVYYCVRHGNFGNSYVSWFAYWGQGTLVTVSAASTKGPSVFPLAPSSKSTSGGTAALGCLVKDYFPEPVTVSWNSGALTSGVHTFPAVLQSSGLYSLSSVVTVPSSSLGTQTYICNVNHKPSNTKVDKRVEPKSCDKTHTCPPCPAPEAAGGPSVFLFPPKPKDTLMISRTPEVTCVVVDVSHEDPEVKFNWYVDGVEVHNAKTKPREEQYNSTYRVVSVLTVLHQDWLNGKEYKCKVSNKALPAPIEKTISKAKGQPREPQVYTLPPSREEMTKNQVSLSCAVKGFYPSDIAVEWESNGQPENNYKTTPPVLDSDGSFFLVSKLTVDKSRWQQGNVFSCSVMHEALHNRFTQKSLSLSPG
notes: scFab-Fc heterodimer, one B7H6 chain and one CD3 chain
By Kd is commonly meant the constant that tells how readily two partners part at equilibrium. High values mean a looser complex, low ones a tighter complex. With B1, the “cy/hu B7-H6” value with Cyno B7H6-His [1] is 1.5. Besides, the binding result with Human B7H1 is given as “no binding (tested: 1 µM)”. Besides, the Kd with Cyno B7H6-His [2] came out at 4.6 nM; with Human CD3 E+G HuFc-6xHis, 4.1 nM. In addition, the “Non-specific binding (RU)” value in assay [3] is 30.6 RU; in assay [4] it was 7.2 RU.

B2: B7H6#14/CD3#1 (bispecific antibody, human IgG1, kappa, lambda, L234A L235A)
chain 1: DIQMTQSPSSLSASVGDRVTITCKASQNVGKYVAWYQQKPGKAPKSLIYSASNRYDGVPSRFSGSGSGTDFTLTISSLQPEDFATYFCQQYISYPLTFGAGTKLEIKRTVAAPSVFIFPPSDEQLKSGTASVVCLLNNFYPREAKVQWKVDNALQSGNSQESVTEQDSKDSTYSLSSTLTLSKADYEKHKVYACEVTHQGLSSPVTKSFNRGECGGGGSEGKSSGSGSESKSTEGKSSGSGSESKSTGGGGSQVQLVQSGAEVKKPGASVKVSCKASGYTFTNYWMNWMKQAPGQGLEWIGGIYLNGDSTDYNEKFKGKVTMTVDTSTSTVYMELSSLRSEDTAVYYCTRRGDYFGDFWGQGTLVTVSSASTKGPSVFPLAPSSKSTSGGTAALGCLVKDYFPEPVTVSWNSGALTSGVHTFPAVLQSSGLYSLSSVVTVPSSSLGTQTYICNVNHKPSNTKVDKRVEPKSCDKTHTCPPCPAPEAAGGPSVFLFPPKPKDTLMISRTPEVTCVVVDVSHEDPEVKFNWYVDGVEVHNAKTKPREEQYNSTYRVVSVLTVLHQDWLNGKEYKCKVSNKALPAPIEKTISKAKGQPREPQVYTLPPSREEMTKNQVSLWCLVKGFYPSDIAVEWESNGQPENNYKTTPPVLDSDGSFFLYSKLTVDKSRWQQGNVFSCSVMHEALHNHYTQKSLSLSPG
chain 2: EAVVTQEPSLTVSPGGTVTLTCRSSTGAVTTSNYANWVQEKPGQLPRGLIGGTNKRAPWVPARFSGSLLGGKAALTLSGAQPEDEAEYFCALWYSNLWVFGGGTKLTVLGQPKAAPSVTLFPPSSEELQANKATLVCLISDFYPGAVKVAWKADGSPVNTGVETTTPSKQSNNKYAASSYLSLTPEQWKSHRSYSCQVTHEGSTVEKTVAPAECSGGGGSEGKSSGSGSESKSTEGKSSGSGSESKSTGGGGSEVQLVESGGGLVQPGGSLKLSCAASGFTFNTYAMNWVRQAPGKGLEWVARIRSKYNNYATYYADSVKDRFTISRDDSKNTAYLQMNNLKTEDTAVYYCVRHGNFGNSYVSWFAYWGQGTLVTVSAASTKGPSVFPLAPSSKSTSGGTAALGCLVKDYFPEPVTVSWNSGALTSGVHTFPAVLQSSGLYSLSSVVTVPSSSLGTQTYICNVNHKPSNTKVDKRVEPKSCDKTHTCPPCPAPEAAGGPSVFLFPPKPKDTLMISRTPEVTCVVVDVSHEDPEVKFNWYVDGVEVHNAKTKPREEQYNSTYRVVSVLTVLHQDWLNGKEYKCKVSNKALPAPIEKTISKAKGQPREPQVYTLPPSREEMTKNQVSLSCAVKGFYPSDIAVEWESNGQPENNYKTTPPVLDSDGSFFLVSKLTVDKSRWQQGNVFSCSVMHEALHNRFTQKSLSLSPG
notes: as for B1
For the molecule B2, the “cy/hu B7-H6” value in the assay with Cyno B7H6-His [1] is 5.9. In addition, the binding result with Human B7H1 was “no binding (tested: 1 µM)”. For the same molecule, the Kd in the assay with Cyno B7H6-His [2] turned out to be 0.6 nM; with Human CD3 E+G HuFc-6xHis it was 4.2 nM. In addition, the “Non-specific binding (RU)” value came to 32.7 RU in assay [3] and 8.1 RU in assay [4].
